Measured values published in PMC7737734.

Columns and labels:
[1] = molecular target: ZIKV full-length envelope protein E with A264C, as displayed on virus-like particles (VLP-cvD) (Zika virus (strain PE243)); assay: non-reducing SDS-PAGE and Western blot of a disulfide-linked dimer; purified VLPs on SDS-PAGE under reducing (DTT) or nonreducing conditions, E detected with the monoclonal antibody DIII-1B
[2] = molecular target: ZIKV soluble envelope protein E, covalently stabilized dimer (sE-cvD), A264C, V5-tagged (Zika virus (strain ArD158095)); assay: non-reducing SDS-PAGE of a disulfide-linked dimer; purified sE proteins on 10% SDS-PAGE under reducing (DTT) and nonreducing conditions, gel stained with InstantBlue

“ZIKV full-length envelope protein E with A264C, as displayed on virus-like particles (VLP-cvD) (natural protein)” was tested, and the stoichiometry N [1] was 2.

For “ZIKV soluble envelope protein E, covalently stabilized dimer (sE-cvD), A264C, V5-tagged (domain or fragment)”, the stoichiometry N [2] was 2.
